{"source": "paper PMC4114559", "about": "“Pigment Dispersing Factor Regulates Ecdysone Biosynthesis via Bombyx Neuropeptide G Protein Coupled Receptor-B2 in the Prothoracic Glands of Bombyx mori” (PLoS ONE, 2014)", "molecules": {"B1": {"name": "PTTH: prothoracicotropic hormone, humoral pathway-mediated tropic hormone (protein, UniProt P17219 116-224, looked up)", "Prothoracicotropic hormone": "GNIQVENQAIPDPPCTCKYKKEIEDLGENSVPRFIETRNCNKTQQPTCRPPYICKESLYSITILKRRETKSQESLEIPNELKYRWVAESHPVSVACLCTRDYQLRYNNN", "modifications": "Prothoracicotropic hormone"}}, "key": {"[1]": {"test_system": "PGs", "conditions": "cited from earlier work", "excerpt": "In many cases, a single hormone has multiple functions regulating many physiological phenomena. Thus, both the regulation of receptor expression in the target tissue and the regulation of hormone release are important for the hormone to only affect the target tissue at the appropriate time. In the case of PTTH, the titer of the hormone in the hemolymph is clearly correlated with the ecdysteroid titer ... || In insects, neuropeptide hormones affect the target tissue via humoral and neuronal pathways. […] The increase in intracellular cAMP is thought to be regulated by Ca^2+ signaling in the PTTH signaling pathway, [37]. […] PDF sig ... || (+ 1 further places)"}, "[2]": {"test_system": "PGs of B. mori", "assay": "Ecdysone biosynthesis in cultured PGs (LC-MS/MS)", "assay_type": "cell-based, Bombyx mori", "experimental": "Two strains of the silkworm B. mori were used for this study. The p50T strain was used for NGS analysis and tissue distribution analysis, and the Kinshu x Showa strain was used for other experiments. The p50T strain was reared on mulberry leaves at room temperature. The Kinshu x Showa strain was reared on an artificial diet (SilkMate PS: Nihon Nosan Kogyo) at 25°C under a 16L:8D photoperiod. The first feeding day was designated as day 0.\nDissected PGs were rinsed with Grace's insect culture medium (Gibco) and pre-cultured individually in 100 µl medium in 96-well plates (BD Falcon) at 25°C for 30 min. To evaluate the effect of extracellular Ca^2+ on ecdysone biosynthesis, lepidopteran saline and lepidopteran saline using NaCl as a replacement for CaCl2 were used. For the pharmacological analysis, the PG was pre-treated with the inhibitor for 15 min during the pre-culture period. Following this treatment, the PG was cultured in the desired conditions for the desired period (Ecdysone assay: 3 hours; cAMP assay: 30 min; and Protein phosphorylation assay: 15 min). Actinomycin D, H-89 and cycloheximide (CHX) were purchased from Sigma; Rapamycin was purchased from Santa Cruz Biotechnology; and LY294002 was purchased from Merck. H-89 was dissolved in water. The other inhibitors were dissolved in DMSO. […]\nPrior to ecdysteroids extraction, the 100 µl of cultured medium was diluted with equal volume of MilliQ water. […] Quantification of ecdysteroids using LC-MS/MS was performed as previously described with some modifications. […] The separated ecdysteroids were quantified with the QTRAP5500 MS/MS system (AB SCIEX) using MRM mode. For the quantitative analysis, standard curves were generated with concentrations of 0.98–1000 ng/ml.\nThe effect of PDF and DH31 on ecdysone biosynthesis was evaluated in the PGs of B. mori. The PGs of V7 larvae were cultured with PDF or DH31, and the amount of ecdysone synthesized was measured using LC-MS/MS [21]. […]\nFigure 3 Prothoracicotropic activities of PDF in vitro. […] Statistically significant differences were evaluated by Student's t-test (***P<0.001, **P<0.01, *P<0.05)."}}, "data": [{"molecule": "B1", "values": [{"measurement": "response of V4 PGs, ecdysone synthesis in vitro (literature)", "setting": "[1]; PGs of V4, ref [8]", "result": "capable of responding to PTTH stimulus and synthesize ecdysone in vitro"}, {"measurement": "ecdysone biosynthesis when extracellular Ca2+ is depleted (literature)", "setting": "[1]; extracellular Ca2+ depleted, ref [27], [37]", "result": "cannot stimulate ecdysone biosynthesis when extracellular Ca^2+ is depleted"}, {"measurement": "effect of a transcription inhibitor on PTTH- and dbcAMP-induced ecdysone biosynthesis (literature)", "setting": "[1]; ref [39]", "result": "ecdysone biosynthesis was suppressed by a transcription inhibitor"}, {"measurement": "ecdysone biosynthesis without extracellular Ca2+", "setting": "[2]; Ca2+-free lepidopteran saline (CaCl2 replaced by NaCl), n = 6", "result": "did not induce ecdysone biosynthesis"}, {"measurement": "EC50", "setting": "[2]; dose-response, cultured PGs of V7 larvae, 3 hours, LC-MS/MS, PTTH n = 10–38, read-out: EC50 (ecdysone biosynthesis, prothoracicotropic activity)", "result": 108, "unit": "pM"}, {"measurement": "concentration of highest prothoracicotropic activity", "setting": "[2]; dose-response, cultured PGs of V7 larvae, LC-MS/MS", "result": "10^−9 M"}]}]}
